Results taken from patent US20190225691A1 (SHANGHAI HENLIUS BIOTECH, published 2019).

How the values were obtained:
[1] = biological target: T1, human PD-L1 on cells (PHA-activated human T cells); PD-L1-transfected CHO-S cells; A375 melanoma cells; … (human, UniProt Q9NZQ7 19-290); test: flow cytometry on PD-L1 transfected CHO-S cells, anti-human IgG Fc-FITC, MFI
T1 construct: whole, on cells; also called PD-L1 expressing T cells; PD-L1 expressing CHO-S cells
Procedure: Binding of tested de-glycosylated variants was assessed by incubating the PD-L1 expressing CHO-S cells (2E5 cells/well) with the serial-diluted antibodies in FACS buffer (PBS with 1% FBS) at 4° C. for 30 minutes. These cells were washed with flow buffer and then stained with anti-human IgG Fc-FITC (1:500×) at 4° C. for 30 minutes to detect antibody binding on the cell surface. Flow cytometric analyses were performed using CytoFlex (Beckman Coulter Inc.).

[2] = biological target: T2, human PD-L1 ECD-His (human, UniProt Q9NZQ7 19-238); test: BLI, ratio of KD to parental PL3#7-19
T2 construct: extracellular domain; Analyte in all SPR and BLI runs; also called hPD-L1_ECD-His; hPD-L1 ECD-His; not shown: His tag
T2 sequence (Q9NZQ7 19-238): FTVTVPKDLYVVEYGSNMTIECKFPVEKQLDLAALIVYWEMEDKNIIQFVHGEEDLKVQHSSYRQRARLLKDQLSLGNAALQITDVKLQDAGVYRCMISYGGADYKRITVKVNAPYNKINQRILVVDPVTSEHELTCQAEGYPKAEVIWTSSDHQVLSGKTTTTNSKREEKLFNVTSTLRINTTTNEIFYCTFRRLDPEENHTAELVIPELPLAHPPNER
Procedure: (§1) Briefly, black 96-well plate was prepared with columns containing 200 μL/well of reagents required for determination of affinity. In general, Octet anti-human-Fc sensors were first placed in wells containing 1×Kinetics Buffer (PBS, 0.1% BSA, 0.02% Tween-20, pH 7.4) for 180 seconds to establish a baseline. Sensors were then transferred to wells containing […] anti-PD-L1 variants for 600 seconds to load the anti-human-Fc tips. Sensors were then placed in fresh 1×Kinetics Buffer for 180 seconds to establish a baseline. Association was then measured by incubating the sensors for 3 minutes in wells containing hPD-L1-His followed by transferring to wells containing 1×Kinetics Buffer for 10 minutes to measure dissociation. Sensors were then regenerated by 3X5 second incubations in Regeneration Buffer (10 mM Glycine, pH 1.5) followed by a 5 second incubation in 1×Kinetics Buffer each time. Regeneration was repeated before measurement of each association/dissociation cycle. […] All data were analyzed with Octet Data Analysis Software v.9.0 and representative of two independent experiments performed in duplicate.
(§2) All the data are representative of two independent experiments performed in duplicate.

[3] = biological target: T2, human PD-L1 ECD-His; test: BLI Octet RED96, antibody on AHC anti-human-Fc sensor, hPD-L1-His analyte, 1:1 fit
Procedure: as §1, §2

[4] = biological target: T2, human PD-L1 ECD-His; test: BLI, ratio of KD to parental PL3#7-43
Procedure: as §1, §2

[5] = biological target: T1, human PD-L1 on cells (PHA-activated …); test: flow cytometry on A375 human melanoma cells, biotin-labeled anti-human IgG Fcγ and streptavidin-PE, MFI
[6] = biological target: T2, human PD-L1 ECD-His; test: BLI Octet RED96, biotinylated antibody on SA sensor, hPD-L1-His analyte, 1:1 fit
Procedure: (§3) Briefly, black 96-well plate was prepared with columns containing 200 μL/well of reagents required for determination of affinity. In general, Octet SA sensors were first placed in wells containing 1×Kinetics Buffer (PBS, 0.1% BSA, 0.02% Tween-20, pH 7.4) for 180 seconds to establish a baseline. […] Sensors were then regenerated by 3×5 second incubations in Regeneration Buffer (10 mM Glycine, pH 1.5) followed by a 5 second incubation in 1×Kinetics Buffer each time. Regeneration was repeated before measurement of each association/dissociation cycle. Sensors were then placed in fresh 1×Kinetics Buffer for 180 seconds to establish a baseline. Association was then measured by incubating the sensors for 5 minutes in wells containing hPD-L1-His followed by transferring to wells containing 1×Kinetics Buffer for 10 minutes to measure dissociation. Kinetics (ka, kd, and […] were measured by global fitting four association/dissociation cycles of data obtained from 1:3 serial dilutions of hPD-L1-His from 38.28 nM to 1.42 nM (one association/dissociation cycle for one concentration) with a 1:1 Langmuir binding model. All data were analyzed with Octet Data Analysis Software v.9.0 and representative of two independent experiments performed in duplicate.
as §2

[7] = biological target: T3, recombinant cynomolgus monkey PD-L1_ECD Fc-fusion protein (Sino Biological Inc.) (cynomolgus monkey, UniProt G7PSE7 19-238); test: ELISA: cynomolgus monkey PD-L1_ECD/Fc coated (9 ng/well), peroxidase-labeled goat anti-human IgG F(ab)'2, TMB, OD450
T3 construct: Bought
T3 sequence (G7PSE7 entry or part of it limits assumed): as the sequence (Q9NZQ7 19-238) above, with A33T, A34S, S62N, R68Q, Q82R, F173L, T185A, T192I, H215L counted along it
Procedure: The recombinant cynomolgus monkey PD-L1_ECD Fc-fusion proteins were purchased from Sino Biological Inc. PD-L1_ECD/Fc (9 ng per well) were immobilized onto 96-well assay plat by incubating overnight at 4° C. Nonspecific binding sites were blocked using 5% skim milk in PBS for one hour at room temperature. After washing plates three times with PBST, indicated concentrations of anti-PD-L1 antibodies and HLX01 (negative control) were incubated with the immobilized proteins for one hour at room temperature. The plates were washed three times with PBST and then incubated for one hour at room temperature with peroxidase-labeled goat anti-human IgG F(ab)′2 (Jackson ImmunoResearch Laboratories) diluted 1/10,000 in PBS. After washing, plates were developed using TMB (eBioscience). The absorbance was read at the wavelength of 450 nm by Varioskan LUX microplate reader (Thermo Scientific).
HLX01 (anti-CD20 mAb) was used as the negative control.

[8] = biological target: T1, human PD-L1 on cells (PHA-activated …); test: flow cytometry on PHA-activated human T cells, biotin-labeled anti-human IgG Fcγ and streptavidin-PE, MFI
[9] = biological target: T1, human PD-L1 on cells (PHA-activated …); test: flow cytometry on NCI-H292 human NSCLC cells, biotin-labeled anti-human IgG Fcγ and streptavidin-PE, MFI
[10] = biological target: T2, human PD-L1 ECD-His; test: BLI, ratio of KD to ref-1
Procedure: as §3, §2

[11] = biological target: T4, mouse PD-L1 on B16-F10 melanoma cells (mouse, UniProt Q9EP73 19-290); test: flow cytometry on mouse PD-L1 expressing B16-F10 melanoma cells, FITC-labeled anti-human IgG Fcγ, MFI
T4 construct: whole, on cells
T4 sequence (Q9EP73 19-290): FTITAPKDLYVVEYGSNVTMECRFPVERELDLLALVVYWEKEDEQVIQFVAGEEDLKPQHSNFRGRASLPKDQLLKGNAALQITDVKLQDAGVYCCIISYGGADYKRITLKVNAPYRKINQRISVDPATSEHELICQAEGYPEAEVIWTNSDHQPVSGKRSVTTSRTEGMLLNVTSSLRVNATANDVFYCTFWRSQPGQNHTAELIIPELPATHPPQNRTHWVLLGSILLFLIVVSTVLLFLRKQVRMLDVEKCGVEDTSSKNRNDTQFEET

[12] = biological target: T2, human PD-L1 ECD-His; test: SPR, ratio of KD to ref-1
[13] = biological target: T2, human PD-L1 ECD-His; test: SPR, hPD-L1-His, comparison of IgG isotypes of PL2#3

T1 sequence (Q9NZQ7 19-290): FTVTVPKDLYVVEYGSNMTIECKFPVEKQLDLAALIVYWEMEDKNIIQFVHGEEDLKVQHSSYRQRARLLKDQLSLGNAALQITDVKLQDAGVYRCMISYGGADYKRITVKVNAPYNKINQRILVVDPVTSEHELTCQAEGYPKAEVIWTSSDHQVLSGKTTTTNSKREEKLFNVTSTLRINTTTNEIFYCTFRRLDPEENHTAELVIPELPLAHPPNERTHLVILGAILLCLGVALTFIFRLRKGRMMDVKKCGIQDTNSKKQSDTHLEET

Row | EC50 (read off the curve) [1] | Fold Difference (against parental variant) [2] | Kd [3] | koff [3] | kon [3] | Fold Difference (against parental variant) [4] | EC50 (read off the curve) [5] | Kd [6] | koff [6] | kon [6] | EC50 (read off the curve) [7] | EC50 (read off the curve) [8] | EC50 (read off the curve) [9] | Improvement over ref-1 [10] | binding result [11] | Improvement over ref-1 [12] | Kd [13] | koff [13] | kon [13] | Binder
1 | ~0.2 µg/mL | 1.48 fold | 417 pM | 0.000162 s⁻¹ | 384000 M⁻¹ s⁻¹ | – | – | – | – | – | – | – | – | – | – | – | – | – | – | PL3#7-19 deglyco1 mtIgG1 (antibody, V domains shown, N297A mutant human IgG1; also called PL3#7-19 deglycol) VH: QVQLVQSGAEVKKPGSSVKVSCKASGGTFSSYPISWVRQAPGQGLEWMGRIIPILGIANYAQKFQGRVTITADKSTSTAYMELSSLRSEDTAVYYCARSRDGYAFGAFDVWGQGTLVTVSS VL: QSVVTQPPPVSGAPGQRVTISCTGSSSNIGGGYDVHWYQQLPGTAPKLLIYGNSNRPSGVPDRFSGSKSGTSASLAITGLQAEDEADYYCQTYDSSLSATVVFGGGTKLTVLG
2 | ~0.2 µg/mL | – | 395 pM | 0.000238 s⁻¹ | 600000 M⁻¹ s⁻¹ | 0.87 fold | – | – | – | – | – | – | – | – | – | – | – | – | – | PL3#7-43 deglyco2 mtIgG1 (antibody, V domains shown, N297A mutant human IgG1; also called PL3#7-43 deg1yco2) VH: QVQLVQSGAEVKKPGSSVKVSCKASGGTFSSYPISWVRQAPGQGLEWMGRIIPILGIANYAQKFQGRVTITADKSTSTAYMELSSLRSEDTAVYYCARSRPGYAFGAFDIWGQGTLVTVSS VL: QSVVTQPPPVSGAPGQRVTISCTGSSSNVGAGYDVHWYQQLPGTAPKLLIYGNSQRSSGVPDRFSGSKSGTSASLAITGLQAEDEADYYCQTYDSSGSARVVFGGGTKLTVLG
3 | – | – | – | – | – | – | ~0.001 µg/mL | 772 pM | 0.000228 s⁻¹ | 307000 M⁻¹ s⁻¹ | ~0.05 µg/mL | ~0.004 µg/mL | ~0.008 µg/mL | 3.19 fold | – | – | – | – | – | PL3#7-54 mtIgG1 (antibody, V domains shown, Antibody was biotinylated (NHS-PEG4-biotin, sites not specified) for the Octet assay of Table 11., N297A mutant human IgG1) VH: QVQLVQSGAEVKKPGSSVKVSCKASGGTFSSYPISWVRQAPGQGLEWMGRIIPILGIADYAQKFQGRVTITADKSTSTAYMELSSLRSEDTAVYYCARSRPGYAFGAFDIWGQGTLVTVSS VL: QSVVTQPPPVSGAPGQRVTISCTGSSSNIGQGYDVHWYQQLPGTAPKLLIYANSNRPSGVPDRFSGSKSGTSASLAITGLQAEDEADYYCQTYDSSLSARVVFGGGTKLTVLG
4 | ~0.2 µg/mL | 1.68 fold | 369 pM | 0.000151 s⁻¹ | 415000 M⁻¹ s⁻¹ | – | – | – | – | – | – | – | – | – | – | – | – | – | – | PL3#7-19 deglyco2 mtIgG1 (antibody, V domains shown, N297A mutant human IgG1) VH: QVQLVQSGAEVKKPGSSVKVSCKASGGTFSSYPISWVRQAPGQGLEWMGRIIPILGIANYAQKFQGRVTITADKSTSTAYMELSSLRSEDTAVYYCARSRDGYAFGAFDVWGQGTLVTVSS VL: QSVVTQPPPVSGAPGQRVTISCTGSSSNIGGGYDVHWYQQLPGTAPKLLIYGQSTRPSGVPDRFSGSKSGTSASLAITGLQAEDEADYYCQTYDSSLSATVVFGGGTKLTVLG
5 | ~0.2 µg/mL | – | 439 pM | 0.000271 s⁻¹ | 612000 M⁻¹ s⁻¹ | 0.79 fold | – | – | – | – | – | – | – | – | – | – | – | – | – | PL3#7-43 deglyco1 mtIgG1 (antibody, V domains shown, N297A mutant human IgG1; also called PL3#7-43 deglycol) VH: QVQLVQSGAEVKKPGSSVKVSCKASGGTFSSYPISWVRQAPGQGLEWMGRIIPILGIANYAQKFQGRVTITADKSTSTAYMELSSLRSEDTAVYYCARSRPGYAFGAFDIWGQGTLVTVSS VL: QSVVTQPPPVSGAPGQRVTISCTGSSSNVGAGYDVHWYQQLPGTAPKLLIYGNSNRPSGVPDRFSGSKSGTSASLAITGLQAEDEADYYCQTYDSSGSARVVFGGGTKLTVLG
6 | ~0.2 µg/mL | 1.74 fold | 356 pM | 0.000176 s⁻¹ | 506000 M⁻¹ s⁻¹ | – | – | – | – | – | – | – | – | – | – | – | – | – | – | PL3#7-19 deglyco3 mtIgG1 (antibody, V domains shown, N297A mutant human IgG1) VH: QVQLVQSGAEVKKPGSSVKVSCKASGGTFSSYPISWVRQAPGQGLEWMGRIIPILGIANYAQKFQGRVTITADKSTSTAYMELSSLRSEDTAVYYCARSRDGYAFGAFDVWGQGTLVTVSS VL: QSVVTQPPPVSGAPGQRVTISCTGSSSNIGGGYDVHWYQQLPGTAPKLLIYGNSQRPSGVPDRFSGSKSGTSASLAITGLQAEDEADYYCQTYDSSLSATVVFGGGTKLTVLG
7 | ~0.2 µg/mL | 1 fold | 619 pM | 0.000207 s⁻¹ | 328000 M⁻¹ s⁻¹ | – | ~0.01 µg/mL | 538 pM | 0.000201 s⁻¹ | 419000 M⁻¹ s⁻¹ | ~0.05 µg/mL | – | ~0.02 µg/mL | 4.57 fold | no binding (tested: 5 µg/mL) | – | – | – | – | PL3#7-19 mtIgG1 (antibody, V domains shown, Antibody was biotinylated (NHS-PEG4-biotin, sites not specified) for the Octet assay of Table 11., N297A mutant human IgG1; also called PL3#7-19 parental mtIgG1) VH: QVQLVQSGAEVKKPGSSVKVSCKASGGTFSSYPISWVRQAPGQGLEWMGRIIPILGIANYAQKFQGRVTITADKSTSTAYMELSSLRSEDTAVYYCARSRDGYAFGAFDVWGQGTLVTVSS VL: QSVVTQPPPVSGAPGQRVTISCTGSSSNIGGGYDVHWYQQLPGTAPKLLIYGNSTRPSGVPDRFSGSKSGTSASLAITGLQAEDEADYYCQTYDSSLSATVVFGGGTKLTVLG
8 | – | – | – | – | – | – | ~0.002 µg/mL | 2460 pM | 0.000561 s⁻¹ | 221000 M⁻¹ s⁻¹ | ~0.03 µg/mL | ~0.003 µg/mL | ~0.01 µg/mL | 1 fold | no binding (tested: 5 µg/mL) | 2.86 fold | 221 pM | 0.000286 s⁻¹ | 1.33e+06 M⁻¹ s⁻¹ | PL2#3 mtIgG1 (N297A) (antibody, V domains shown, N297A mutant of human IgG1 Fc backbone) VH: EVQLVQSGGGLVKPGGSLRLSCAASGFTFSSYTMNWVRQAPGKGLEWVSSISSGSDYLYYADSVKGRFTISRDNAKNSLYLQMNSLRAEDTAVYYCARNELRWYPQAGAFDRWGQGTMVTVSS VL: QSVVTQPPSMSAAPGQRVTISCSGSSSYIESSYVGWYQQLPGTAPRLLIYDDDMRPSGIPDRFSGSKSGTSATLAITGLQTGDEADYYCEIWRSGLGGVFGGGTKLTVLS
